From article PMC12004354

Assays:
[1] = target: T1, human recombinant C-reactive protein (human), P02741; test: native MS; direct infusion native MS with SID; 50 mM ammonium acetate, for charge reduction 20% (v/v) 50 mM TEAA added; settings: remark: other sources report otherwise
T1 chain: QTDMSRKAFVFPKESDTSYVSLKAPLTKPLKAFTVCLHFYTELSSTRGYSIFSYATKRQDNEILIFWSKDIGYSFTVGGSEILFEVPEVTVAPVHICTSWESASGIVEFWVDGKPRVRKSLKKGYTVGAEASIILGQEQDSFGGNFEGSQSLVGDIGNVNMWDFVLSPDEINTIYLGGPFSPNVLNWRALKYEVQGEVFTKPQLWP

[2] = target: T1, human recombinant C-reactive protein …; test: native MS; native capillary zone electrophoresis-MS (nCZE-MS) with surface-induced dissociation (SID); LPA-coated capillary, 20 kV; BGE 50 mM ammonium acetate pH around 6.8 (normal charge) or 40 mM AmAc with 10 mM TEAA (charge-reducing); 0.5 uM of each complex; precursors 15+/11+ SA and 23+/17+ CRP isolated; settings: remark: other sources report otherwise

stoichiometry N [1]: 5
stoichiometry N [2]: 5
B1: human recombinant C-reactive protein, P02741 19-224 (natural protein)
chain: QTDMSRKAFVFPKESDTSYVSLKAPLTKPLKAFTVCLHFYTELSSTRGYSIFSYATKRQDNEILIFWSKDIGYSFTVGGSEILFEVPEVTVAPVHICTSWESASGIVEFWVDGKPRVRKSLKKGYTVGAEASIILGQEQDSFGGNFEGSQSLVGDIGNVNMWDFVLSPDEINTIYLGGPFSPNVLNWRALKYEVQGEVFTKPQLWP
